Experimental findings from article PMC5766498 (Nature Communications, 2018) are described below.

First the molecules themselves.
B1: untagged RNF168 UDM2ΔC (residues 419-462) (domain or fragment, human, UniProt Q8IYW5 419-462, looked up)
chain: EETEINFTQKLIDLEHLLFERHKQEEQDRLLALQLQKEVDKEQM
notes: RNF168, human, residues 419-462 (UDM2ΔC); also called UDM2ΔC (untagged); UAD–MIU2; source: E. coli Rosetta (DE3), purified (Glutathione Sepharose, HRV3C cleavage, ResourceQ, Superdex75)
B2: untagged RNF168 LRM1-UMI (residues 110-166) (domain or fragment, human, UniProt Q8IYW5 110-166, looked up)
chain: LSKPGELRREYEEEISKVAAERRASEEEENKASEEYIQRLLAEEEEEEKRQAEKRRR
notes: Printed as untagged; also called LRM1–UMI (untagged); source: E. coli Rosetta (DE3), purified
B3: His6-fused RNF168 UMI-MIU1 (residues 134-188) (domain or fragment, human, UniProt Q8IYW5 134-188, looked up)
chain: SEEEENKASEEYIQRLLAEEEEEEKRQAEKRRRAMEEQLKSDEELARKLSIDINN
notes: source: E. coli, purified (Ni-NTA, then as UDM2ΔC)
B4: GST-tagged RNF168 MIU2 (residues 436-462) (domain or fragment, human, UniProt Q8IYW5 436-462, looked up)
chain: LFERHKQEEQDRLLALQLQKEVDKEQM
notes: RNF168, human, residues 436-462 (MIU2); source: E. coli Rosetta (DE3), purified (Glutathione Sepharose)
B5: GST-tagged RNF168 MIU1 (residues 161-194) (domain or fragment, human, UniProt Q8IYW5 161-194, looked up)
chain: AEKRRRAMEEQLKSDEELARKLSIDINNFCEGSI
notes: RNF168, human, residues 161-194 (MIU1 alone); This construct is not in the methods' list of constructs; its limits stand in the results only; also called MIU1 alone; source: E. coli Rosetta (DE3), purified (Glutathione Sepharose)
B6: GST-tagged RNF168 UDM2ΔC (residues 419-462) (domain or fragment, human, UniProt Q8IYW5 419-462, looked up)
chain: EETEINFTQKLIDLEHLLFERHKQEEQDRLLALQLQKEVDKEQM
notes: RNF168, human, residues 419-462 (UDM2ΔC); also called UAD–MIU2; source: E. coli Rosetta (DE3), purified (Glutathione Sepharose)
B7: GST-tagged RNF168 UDM2ΔC (R439A) (domain or fragment, human, UniProt Q8IYW5 419-462, looked up)
chain: EETEINFTQKLIDLEHLLFEAHKQEEQDRLLALQLQKEVDKEQM
notes: RNF168, human, residues 419-462 (UDM2ΔC) with R439A; source: E. coli Rosetta (DE3), purified (Glutathione Sepharose)
B8: GST-tagged RNF168 UDM2ΔC (E433R) (domain or fragment, human, UniProt Q8IYW5 419-462, looked up)
chain: EETEINFTQKLIDLRHLLFERHKQEEQDRLLALQLQKEVDKEQM
notes: RNF168, human, residues 419-462 (UDM2ΔC) with E433R; source: E. coli Rosetta (DE3), purified (Glutathione Sepharose)
B9: GST-tagged RNF168 UDM2ΔC (L436T) (domain or fragment, human, UniProt Q8IYW5 419-462, looked up)
chain: EETEINFTQKLIDLEHLTFERHKQEEQDRLLALQLQKEVDKEQM
notes: RNF168, human, residues 419-462 (UDM2ΔC) with L436T; source: E. coli Rosetta (DE3), purified (Glutathione Sepharose)
B10: GST-tagged RNF168 UDM2 (residues 419-487) (domain or fragment, human, UniProt Q8IYW5 419-487, looked up)
chain: EETEINFTQKLIDLEHLLFERHKQEEQDRLLALQLQKEVDKEQMVPNRQKGSPDEYHLRATSSPPDKVL
notes: RNF168, human, residues 419-487 (UDM2); source: E. coli Rosetta (DE3), purified (Glutathione Sepharose)
B11: GST-tagged RNF168 LRM1 (L116A)-UMI (domain or fragment, human, UniProt Q8IYW5 110-166, looked up)
chain: LSKPGEARREYEEEISKVAAERRASEEEENKASEEYIQRLLAEEEEEEKRQAEKRRR
notes: source: E. coli Rosetta (DE3), purified (Glutathione Sepharose)
B12: GST-tagged RNF168 LRM1-UMI (S142A) (domain or fragment, human, UniProt Q8IYW5 110-166, looked up)
chain: LSKPGELRREYEEEISKVAAERRASEEEENKAAEEYIQRLLAEEEEEEKRQAEKRRR
notes: as for B11
B13: GST-tagged RNF168 LRM1 (Y120A)-UMI (domain or fragment, human, UniProt Q8IYW5 110-166, looked up)
chain: LSKPGELRREAEEEISKVAAERRASEEEENKASEEYIQRLLAEEEEEEKRQAEKRRR
notes: as for B11
B14: GST-tagged RNF168 LRM1-UMI (residues 110-166) (domain or fragment, human, UniProt Q8IYW5 110-166, looked up)
chain: LSKPGELRREYEEEISKVAAERRASEEEENKASEEYIQRLLAEEEEEEKRQAEKRRR
notes: Cloned into pCold-GST; also called N-terminal part of UDM1; source: E. coli Rosetta (DE3), purified (Glutathione Sepharose)
B15: GST-tagged RNF168 LRM1-UMI (L149A) (domain or fragment, human, UniProt Q8IYW5 110-166, looked up)
chain: LSKPGELRREYEEEISKVAAERRASEEEENKASEEYIQRALAEEEEEEKRQAEKRRR
notes: as for B11
B16: GST-tagged RNF168 UMI (residues 134-166) (domain or fragment, human, UniProt Q8IYW5 134-166, looked up)
chain: SEEEENKASEEYIQRLLAEEEEEEKRQAEKRRR
notes: Cloned into pCold-GST; source: E. coli Rosetta (DE3), purified (Glutathione Sepharose)

The target in the first assay is T1, Met1-linked diUb (M1-Ub2) (human, UniProt P0CG47 1-76; P0CG47 1-76).
T1 construct: ubiquitin, human, first (distal) moiety of the linear diUb; ubiquitin, human, second (proximal) moiety, its Met1 joined to Gly76 of the first; Expressed from a human M1-Ub2 gene as one chain; source: E. coli Rosetta (DE3), pET26b, purified (heat step, ResourceS, Superdex75)
Description: SPR; untagged LRM1-UMI or UDM2ΔC covalently immobilised on CM5 by amine coupling (10 mM sodium acetate pH 4.0 or 4.5); Ub2 species injected; HBS-P, 25 °C; steady-state fit, 1:1 model. Conditions: both partners purified. A general note: In SPR one partner is held on a chip, and binding of the other changes the refractive index at the surface.
For the molecule B1, binding was put at a Kd of 145 µM. Same read-out and setting: to B2 belongs 200 µM.

For the next assay, the target named is T1, Met1-linked diUb (M1-Ub2). Description: pull-down; 100 µg His6-fused RNF168 on Ni-NTA beads, 15 µg Ub2 species, 25 mM Tris-HCl pH 8.0, 20 mM imidazole, 0.1% Triton X-100, 100 mM NaCl, on ice 2 h; SDS-PAGE, Coomassie (Supplementary Fig. 1a). Conditions: both partners purified.
On to B3, for which the binding result is given as “binds”.

The target in another assay is T1, Met1-linked diUb (M1-Ub2). Description: SPR; GST-fused RNF168 domains captured by immobilised anti-GST antibody on CM5 chip (1000-1500 RU); Ub2 species injected 60 s at 10 µL per min; HBS-P (10 mM HEPES-Na pH 7.4, 150 mM NaCl, 0.05% P20), 25 °C; steady-state fit, 1:1 model. As to conditions: both partners purified.
In the case of B4, binding was characterised by a dissociation constant (Kd) of 235 µM.

For B5, binding was put at a Kd of 233 µM. The same measure, in the same setting: as for B6, the figure is 221 µM; as for B7, 495 µM; as for B8, 214 µM.

In the case of B9, the Kd – broadly, the equilibrium constant for the complex coming apart – came out at 160 µM. B10 showed a Kd of 238 µM. In the case of B11, the Kd turned out to be 206 µM. Consider B12, for which the Kd is 965 µM. Same read-out and setting: to B13 belongs 236 µM. B14 had a Kd of 231 µM.

As to B15, binding was characterised by a dissociation constant (Kd) of 1150 µM. For B16, the Kd is 306 µM.
